From US20240141060A1 (Novartis, published 2024)
Residue numbers refer to the chain shown, from its start.

T1: Recombinant Human 5′-Nucleotidase/CD73 Protein, CF (R&D Systems Cat: 5795-EN) (human, UniProt P21589 27-547)
T1 construct: Bought protein; also called Human CD73-His; recombinant human CD73; not shown: His tag
T1 sequence (looked up): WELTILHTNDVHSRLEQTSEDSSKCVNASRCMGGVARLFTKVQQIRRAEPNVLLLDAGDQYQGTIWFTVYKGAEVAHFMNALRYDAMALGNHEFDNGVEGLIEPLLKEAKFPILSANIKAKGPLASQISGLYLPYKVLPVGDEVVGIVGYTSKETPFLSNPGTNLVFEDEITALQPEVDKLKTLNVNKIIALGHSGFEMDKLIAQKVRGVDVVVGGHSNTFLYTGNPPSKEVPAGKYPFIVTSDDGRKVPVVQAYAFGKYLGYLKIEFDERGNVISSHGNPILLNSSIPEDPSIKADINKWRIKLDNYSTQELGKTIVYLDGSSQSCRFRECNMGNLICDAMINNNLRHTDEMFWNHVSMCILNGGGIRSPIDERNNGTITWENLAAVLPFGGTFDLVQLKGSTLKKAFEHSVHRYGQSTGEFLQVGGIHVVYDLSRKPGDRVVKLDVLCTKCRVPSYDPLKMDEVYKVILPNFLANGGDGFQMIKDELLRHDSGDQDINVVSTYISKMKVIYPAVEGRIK

T2: Cynomolgus CD73/NT5E Protein (His Tag) (Sino Biological Cat: 90192-C08H-50) (cynomolgus monkey, UniProt A0A2K5V5U7 27-547)
T2 construct: treated as one protein; also called Cynomolgus CD73-His; recombinant cynomolgus monkey CD73; not shown: His tag
T2 sequence: T1 sequence (looked up) with M199T, T350A, V466I

T3: Recombinant Mouse 5′-Nucleotidase/CD73 Protein, CF (R&D Systems Cat: 4488-EN) (mouse, UniProt Q61503 29-549, limits assumed)
T3 construct: Bought protein; also called Mouse CD73-His; recombinant mouse CD73; not shown: His tag
T3 sequence (looked up): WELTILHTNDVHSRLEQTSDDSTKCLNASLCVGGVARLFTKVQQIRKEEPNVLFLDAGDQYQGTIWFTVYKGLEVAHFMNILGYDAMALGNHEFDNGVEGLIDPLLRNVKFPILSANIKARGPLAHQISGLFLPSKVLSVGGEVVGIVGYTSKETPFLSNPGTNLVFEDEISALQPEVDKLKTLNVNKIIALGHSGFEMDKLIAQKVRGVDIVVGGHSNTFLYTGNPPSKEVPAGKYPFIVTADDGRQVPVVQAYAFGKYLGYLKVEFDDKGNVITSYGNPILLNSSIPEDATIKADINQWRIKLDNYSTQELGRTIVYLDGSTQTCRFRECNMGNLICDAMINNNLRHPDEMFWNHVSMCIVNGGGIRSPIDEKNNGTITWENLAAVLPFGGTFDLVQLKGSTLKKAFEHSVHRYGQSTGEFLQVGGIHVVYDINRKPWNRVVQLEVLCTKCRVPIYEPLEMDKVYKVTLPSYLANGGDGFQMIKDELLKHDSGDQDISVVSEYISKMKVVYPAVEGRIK

T4: recombinant rat CD73 (Sino Biological 80375-R08H) (rat, UniProt P21588 29-551)
T4 construct: Bought protein; also called rCD73; rat CD73/His
T4 sequence (looked up): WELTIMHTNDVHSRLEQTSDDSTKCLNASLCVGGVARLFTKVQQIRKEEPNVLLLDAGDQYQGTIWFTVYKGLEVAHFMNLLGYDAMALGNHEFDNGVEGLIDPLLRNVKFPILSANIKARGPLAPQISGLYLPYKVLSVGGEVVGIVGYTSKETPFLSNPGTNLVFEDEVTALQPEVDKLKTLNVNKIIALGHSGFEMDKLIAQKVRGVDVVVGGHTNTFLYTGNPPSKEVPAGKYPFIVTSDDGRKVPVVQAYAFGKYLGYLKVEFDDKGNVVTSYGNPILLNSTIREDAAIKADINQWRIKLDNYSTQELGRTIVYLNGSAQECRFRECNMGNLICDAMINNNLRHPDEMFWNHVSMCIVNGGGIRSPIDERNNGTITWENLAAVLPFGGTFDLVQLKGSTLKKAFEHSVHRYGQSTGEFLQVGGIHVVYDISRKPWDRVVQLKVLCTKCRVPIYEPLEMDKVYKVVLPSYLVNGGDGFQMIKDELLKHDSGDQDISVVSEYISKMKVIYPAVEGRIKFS

B1: 358.C (antibody, V domains shown)
VH: QVQLQESGPGLVKPSETLSLTCTVSGGSISGRYWSWIRQPPGKGLEWIGYIYGTGSTNYNPSLKSRVTISVDTSKNQFSLKLSSVTAADTAVYYCARESQESPYNNWFDPWGQGTLVTVSS
VL: DIQMTQSPSSVSASVGDRVTITCRASQGISSWLAWYQQKPGKAPKLLIYAASSLQSGVPSRFSGSGSGTDFTLTISSLQPEDFATYYCQQGNSFPRTFGGGTKVEIK
B2: 356.C (antibody, V domains shown)
VH: B1 VH with S30E, T54S, N58K
VL: B1 VL
B3: Fab 350 (Fab, V domains shown)
VH: B1 VH with S30E, G31R, R32Y, T54R
VL: DIQMTQSPSSVSASVGDRVTITCRASQGISSWLAWYQQKPGKAPKLLIYAASSLQSGVPSRFSGSGSGTDFTLTISSLQPEDFATYYCQQGNSFPRTFGGGTKVEIKR
notes: Made by a stop between the two proline residues above the core hinge region of the heavy chain; also called 350 Fab; Fab of mAb 350
B4: 350.C (antibody, V domains shown)
VH: B1 VH with S30E, G31R, R32Y, T54R
VL: B1 VL
notes: also called 350 IgG1 format
B5: Fab 373 (Fab, V domains shown)
VH: EVQLLESGGGLVQPGGSLRLSCAASGFTFHRYAMSWVRQAPGKGLEWVSAISGSGMNTYYADSVKGRFTISRDNSKNTLYLQMNSLRAEDTAVYYCARGGLYGSGSYLSDFDLWGRGTLVTVSS
VL: EIVLTQSPATLSVSPGERATLSCRASQSVGSNLAWYQQKPGQAPRLLIYGASTRATGIPARFSGSGSGTEFTLTISSLQSEDFAVYYCQQHNAFPYTFGGGTKVEIKR
B6: 373.A Fab (Fab, V domains shown)
VH: B5 VH
VL: B5 VL

How the values were obtained:
[1] = molecular target: T1, Recombinant Human 5′-Nucleotidase/CD73 …; assay: ForteBio Octet RED384 (BLI), whole IgG on AHQ sensors, 100 nM antigen, 1:1 model
Procedure: (§1) Briefly, ForteBio affinity measurements were performed by loading IgGs on-line onto AHQ sensors. Sensors were equilibrated off-line in assay buffer for 30 min and then monitored on-line for 60 seconds for baseline establishment. Sensors with loaded IgGs were exposed to 100 nM antigen for 3 minutes, and afterwards were transferred to assay buffer for 3 min for off-rate measurement. All kinetics were analyzed using the 1:1 binding model. Antigens used were: [0438] Human CD73-His: Recombinant Human 5′-Nucleotidase/CD73 Protein, CF from R&D Systems Cat: 5795-EN [0439] Mouse CD73-His: Recombinant Mouse 5′-Nucleotidase/CD73 Protein, CF from R&D Systems Cat: 4488-EN [0440] Cynomolgus CD73-His: Cynomolgus CD73/NT5E Protein (His Tag) from Sino Biological Cat: 90192-C08H-50

[2] = molecular target: T2, Cynomolgus CD73/NT5E Protein (His Tag) …; assay: as above
Procedure: as §1

[3] = molecular target: T3, Recombinant Mouse 5′-Nucleotidase/CD73 …; assay: as above
Procedure: as §1

[4] = molecular target: T1, Recombinant Human 5′-Nucleotidase/CD73 …; assay: ForteBio Octet RED384 (BLI), whole IgG on AHQ sensors, 100 nM antigen, 1:1 model; * value approaching upper limit for Kd measurement
Procedure: as §1

[5] = molecular target: T1, Recombinant Human 5′-Nucleotidase/CD73 …; assay: Biacore SPR, Fab captured by anti-human Fab on CM5 chip, CD73 0.01-90 nM as analyte
Procedure: (§2) Proteins used were as follows: recombinant human CD73 (R&D Systems 5795-EN); recombinant cynomolgus monkey CD73 (Sino Biological 90912-C08H); recombinant mouse CD73 (R&D Systems 4488-EN); and recombinant rat CD73 (Sino Biological 80375-R08H). Anti-human Fab (GE Healthcare Life Sciences) was immobilized on all 4 flow cells (Fc) on a CM5 chip (GE). […] 0.01 nM to 90 nM CD73 (3-fold dilution series) was flown over all 4 Fcs. All samples were diluted in running buffer HBS-EP+(pH 7.4, 0.01 M HEPES, 150 mM NaCl, 3 mM EDTA and 0.05% (v/v) P20).

[6] = molecular target: T2, Cynomolgus CD73/NT5E Protein (His Tag) …; assay: as above
Procedure: as §2

[7] = molecular target: T3, Recombinant Mouse 5′-Nucleotidase/CD73 …; assay: as above
Procedure: as §2

[8] = molecular target: T4, recombinant rat CD73 (Sino Biological …); assay: as above
Procedure: as §2

[9] = molecular target: T3, Recombinant Mouse 5′-Nucleotidase/CD73 …; assay: ForteBio Octet RED384 (BLI), whole IgG on AHQ sensors, 100 nM antigen, 1:1 model; * value approaching upper limit for Kd measurement
Procedure: as §1

[10] = molecular target: T3, Recombinant Mouse 5′-Nucleotidase/CD73 …; assay: Biacore SPR, Fab captured by anti-human Fab on CM5 chip, CD73 as analyte
Procedure: as §2

[11] = molecular target: T4, recombinant rat CD73 (Sino Biological …); assay: as above
Procedure: as §2

[12] = molecular target: T3, Recombinant Mouse 5′-Nucleotidase/CD73 …; assay: Biacore SPR, His-tagged CD73 captured by anti-His antibody on CM5 chip, Fab as analyte
Procedure: (§3) The anti-His Ab was directly immobilized onto a CM5 chip surface by amine coupling. The His-tagged human CD73/His, cynomolgus monkey CD73/His, mouse CD73/His or rat CD73/His was flowed over and captured at a desired resonance unit (RU) for an Rmax of 20. Antibody analyte concentrations in serial dilutions of IgG or Fab were flowed over at 60 μL/min. The sensorgrams were analyzed using the manufacturer's software for a 1:1 binding model.

[13] = molecular target: T4, recombinant rat CD73 (Sino Biological …); assay: as above
Procedure: as §3

Binder	Kd [2] [nM]	Kd [3] [nM]	Kd [4] [nM]	Kd [5] [nM]	Kd [6] [nM]	also measured
B1	0.814	3.51	–	–	–	Kd [1]: 0.317 nM
B2	0.693	0.401	0.243	–	–	–
B3	–	–	–	≤ 0.1	≤ 0.1	Kd [7]: 17.3 nM; Kd [8]: 28.3 nM
B4	0.635	–	0.248	–	–	Kd [9]: 0.409 nM
B5	–	–	–	13	9.46	binding result [10]: no binding (tested: 0.01 nM to 90 nM CD73); binding result [11]: no binding (tested: 0.01 nM to 90 nM CD73)
B6	–	–	–	–	–	binding result [12]: no binding; binding result [13]: no binding
